Test results: the supplement of paper PMC10126150
± gives the standard deviation of the averaged measurements.
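Also: ATP exposure 15 min at 22 °C before imaging.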

The sequences below were run on ATP (assay: switch fluorescence ratio, 500 uM ATP over buffer (Cy3 cluster intensity, sum of 5 cycles each) (fold (ratio)); higher = stronger signal-on switching upon ATP binding; sequences stand for … in TCGTCGGCAGCGTCAGATGTGTATAAGAGACAGTTTTTTTTTTTTTTTTTTTTTTTTT…TC). Conditions: aptamer strand: ATP DNA aptamer (quencher-CACCTGGGGGAGTATTGCGGAGGAAGG + anchor), 100 nM annealed; ATP concentration: 500 uM.
Method in brief: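 Cy3-labelled switching-strand clusters on a modified Illumina MiSeq flow-cell were annealed to 100 nM quencher-labelled ATP aptamer, imaged in selection buffer, then imaged after 15 min with 500 uM ATP at 22 °C. Five buffer/ATP cycles ran, with NaOH stripping and re-annealing between them. The fluorescence ratio is summed target-cycle over summed buffer-cycle Cy3 intensity per cluster, averaged per switch-domain sequence. Clusters outside 100-1000 RFU were excluded.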
Work on CCGCTGGTGT yielded a switch fluorescence ratio of 3.59 ± 0.29. TGAAGGGGGA gave a switch fluorescence ratio of 0.995 ± 0.041. TGGACCCGAT was tested, and the switch fluorescence ratio was 0.978 ± 0.011. ATAATCCCGA showed a switch fluorescence ratio of 1.02 ± 0.015. For GGCGGACGGA, the switch fluorescence ratio was 1.07 ± 0.089. TATGATGGGA showed a switch fluorescence ratio of 0.9911 ± 0.0093. With GAGTCAATAG the switch fluorescence ratio was 2.98 ± 0.047. GGGGAGGTTC gave a switch fluorescence ratio of 1 ± 0.031. With AAGTTTTAGG the switch fluorescence ratio was 0.988 ± 0.027. ATGTAATGGT showed a switch fluorescence ratio of 1.01 ± 0.03. AGGGGTAACT was tested, and the switch fluorescence ratio was 0.996 ± 0.031. For TAAGTGGTTG, the switch fluorescence ratio was 0.989 ± 0.052. CCTTGGGGGA was tested, and the switch fluorescence ratio was 1.14 ± 0.055. TCCAGCCCGT gave a switch fluorescence ratio of 1.02 ± 0.027. In the case of GCATCGGGGG, the switch fluorescence ratio is reported as 0.981 ± 0.037. CGTGCAAAGG was tested, and the switch fluorescence ratio was 1.05 ± 0.013. GGGGTCAGTT gave a switch fluorescence ratio of 0.973 ± 0.025. Sequence AGCTTGGATA has a switch fluorescence ratio of 1.017 ± 0.01. ATCGGGTGTG gave a switch fluorescence ratio of 0.9871 ± 0.0015. In the case of AGGGAAGGAC, the switch fluorescence ratio is reported as 1.03 ± 0.029. AAAAATATGC showed a switch fluorescence ratio of 0.996 ± 0.017. TTCGTATAGC gave a switch fluorescence ratio of 1.03 ± 0.036. GGCGCAGTTC gave a switch fluorescence ratio of 1.37 ± 0.077. ATTATTTTGG showed a switch fluorescence ratio of 1.01 ± 0.018. In the case of AATATCGGCA, the switch fluorescence ratio is reported as 0.982 ± 0.027. TTGAGTGGGT showed a switch fluorescence ratio of 0.99 ± 0.042. GCTAGGGTA showed a switch fluorescence ratio of 0.9973 ± 0.0043. With ATCAGACTTG the switch fluorescence ratio was 1.023 ± 0.0012. Work on CTATGGGATT yielded a switch fluorescence ratio of 0.983 ± 0.022. With GGGGTACACT the switch fluorescence ratio was 0.9949 ± 0.0056. Work on GCCAAAGCGG yielded a switch fluorescence ratio of 0.997 ± 0.014. With GAAGGATTGT the switch fluorescence ratio was 1.02 ± 0.059. In the case of CGATTCTGAG, the switch fluorescence ratio is reported as 1 ± 0.024. For CGGTTGTAAA, the switch fluorescence ratio was 1.02 ± 0.013. With TCGGGCTTTT the switch fluorescence ratio was 0.969 ± 0.026. For AAATGGAGGG, the switch fluorescence ratio was 1.01 ± 0.044. With TATTTTTCGC the switch fluorescence ratio was 0.967 ± 0.015. For TTCGAGTTTT, the switch fluorescence ratio was 0.9669 ± 0.00099. For TAAGATGGG, the switch fluorescence ratio was 1.01 ± 0.019. TTAAGGTTAG was tested, and the switch fluorescence ratio was 0.976 ± 0.024. TCGGGGGGCG was tested, and the switch fluorescence ratio was 0.977 ± 0.034. For GGAATTCGGG, the switch fluorescence ratio was 1.01 ± 0.025. With AAAAAGGTTT the switch fluorescence ratio was 0.978 ± 0.037. With GCTGGAAGCA the switch fluorescence ratio was 0.986 ± 0.078. TTTGCGGGGG gave a switch fluorescence ratio of 1.01 ± 0.035. For GGGTATTGGG, the switch fluorescence ratio was 0.99 ± 0.021. With CTTGGCTCTT the switch fluorescence ratio was 0.985 ± 0.01. TTGCTTTTTT showed a switch fluorescence ratio of 0.992 ± 0.013. GATGGGTCTA showed a switch fluorescence ratio of 0.966 ± 0.029. AAGTTATGTT showed a switch fluorescence ratio of 1.02 ± 0.028. For CACGCACATG, the switch fluorescence ratio was 1.5 ± 0.076. GCATCTAGAT was tested, and the switch fluorescence ratio was 0.986 ± 0.018. For GGGTGGGGCT, the switch fluorescence ratio was 1.01 ± 0.031. Sequence TGGTTCAGGG has a switch fluorescence ratio of 0.997 ± 0.04. ATTTGCCGGG showed a switch fluorescence ratio of 1.031 ± 0.0081. For TTGGGGCGGA, the switch fluorescence ratio was 0.9923 ± 0.0095. Sequence AGTGAATTTT has a switch fluorescence ratio of 0.988 ± 0.064. Work on CGTGAAAGCA yielded a switch fluorescence ratio of 1.02 ± 0.067. GGGAGCTGTT was tested, and the switch fluorescence ratio was 1.06 ± 0.11. CCAATTATGT gave a switch fluorescence ratio of 1.01 ± 0.025. With AATGAGGGGG the switch fluorescence ratio was 0.978 ± 0.05. For GACTTTGTCA, the switch fluorescence ratio was 1.04 ± 0.025. Sequence GGGGGTACAT has a switch fluorescence ratio of 0.99 ± 0.011. CCCGGGGGTT showed a switch fluorescence ratio of 1.14 ± 0.13. Work on AGTAGGTGGC yielded a switch fluorescence ratio of 1 ± 0.052. Work on TCGTGTGGGT yielded a switch fluorescence ratio of 1.01 ± 0.023. GCAGTTGTGT gave a switch fluorescence ratio of 0.9941 ± 0.0058. Sequence TGTTAGTCTA has a switch fluorescence ratio of 0.9884 ± 0.0052. In the case of TCATTGTTAT, the switch fluorescence ratio is reported as 0.999 ± 0.036. TATAAATGTG showed a switch fluorescence ratio of 0.978 ± 0.027. For TTTGCCAAAA, the switch fluorescence ratio was 1.14 ± 0.23. GAGATGATTT showed a switch fluorescence ratio of 1.02 ± 0.063. In the case of AATTAAGGTT, the switch fluorescence ratio is reported as 1.04 ± 0.03. With ATTTAGTACT the switch fluorescence ratio was 1.04 ± 0.021. Work on GGTATTAAGG yielded a switch fluorescence ratio of 1.02 ± 0.013. For GCAACCGGTC, the switch fluorescence ratio was 1.054 ± 0.0041. In the case of TATCCCGGTG, the switch fluorescence ratio is reported as 1.82 ± 0.043. With GAGGGGTTGA the switch fluorescence ratio was 1.01 ± 0.077. With AGGGGGGGGC the switch fluorescence ratio was 1.04 ± 0.13. Sequence TGTTAATGGG has a switch fluorescence ratio of 0.997 ± 0.016. ATCTGTCTAT gave a switch fluorescence ratio of 0.98 ± 0.026. TACTGAAGGG was tested, and the switch fluorescence ratio was 1.02 ± 0.031. For GATTATATAT, the switch fluorescence ratio was 0.986 ± 0.015. GCCATGGTTG was tested, and the switch fluorescence ratio was 1.04 ± 0.067. TTTTCAAAAT was tested, and the switch fluorescence ratio was 1.08 ± 0.13. AAGGTACAAG gave a switch fluorescence ratio of 1.06 ± 0.047. GTCGCCGGGT gave a switch fluorescence ratio of 0.994 ± 0.026. With AGGACTGTGT the switch fluorescence ratio was 1.02 ± 0.04. CTAATCGCTG showed a switch fluorescence ratio of 1.05 ± 0.034. Sequence CAGCCGGGTG has a switch fluorescence ratio of 1.3412 ± 0.0003. Work on GATATTGTAG yielded a switch fluorescence ratio of 0.986 ± 0.026. Sequence AGAGGCTGTT has a switch fluorescence ratio of 1.03 ± 0.041. Sequence TAAAAGGACT has a switch fluorescence ratio of 1.03 ± 0.034. CCATGGCCAC gave a switch fluorescence ratio of 1.0321 ± 0.00059. Sequence TTTATGGATT has a switch fluorescence ratio of 1.006 ± 0.01. Sequence TGCTGGGTGG has a switch fluorescence ratio of 1.01 ± 0.02. For TGAATGGAAT, the switch fluorescence ratio was 1.04 ± 0.047. For AAGTTAAAGG, the switch fluorescence ratio was 1.03 ± 0.077. Work on CATGTTGAAG yielded a switch fluorescence ratio of 0.986 ± 0.077. With GAGAGTACGT the switch fluorescence ratio was 0.964 ± 0.013.
